Data: IntAct's records for PubMed 24275654

Legend:
tbb6_human TUBB6 = tbb6_human TUBB6 (UniProt Q9BUF5)
tbb5_human TUBB = tbb5_human TUBB (UniProt P07437)
tbb4a_human TUBB4A = tbb4a_human TUBB4A (UniProt P04350)
Chain of UniProt P04350 (P04350 whole entry): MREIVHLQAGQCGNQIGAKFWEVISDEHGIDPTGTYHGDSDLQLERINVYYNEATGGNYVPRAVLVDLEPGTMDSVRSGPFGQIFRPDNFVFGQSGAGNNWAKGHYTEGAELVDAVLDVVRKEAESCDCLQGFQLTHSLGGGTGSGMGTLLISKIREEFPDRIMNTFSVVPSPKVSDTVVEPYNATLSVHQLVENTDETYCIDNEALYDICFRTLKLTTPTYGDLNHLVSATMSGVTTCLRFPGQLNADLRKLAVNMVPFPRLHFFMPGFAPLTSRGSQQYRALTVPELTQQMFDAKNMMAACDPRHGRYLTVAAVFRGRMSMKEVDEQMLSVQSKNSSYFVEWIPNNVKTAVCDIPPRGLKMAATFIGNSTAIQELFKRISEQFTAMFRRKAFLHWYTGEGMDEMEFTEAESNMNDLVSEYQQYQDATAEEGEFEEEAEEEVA

Chain of UniProt P07437 (P07437 whole entry): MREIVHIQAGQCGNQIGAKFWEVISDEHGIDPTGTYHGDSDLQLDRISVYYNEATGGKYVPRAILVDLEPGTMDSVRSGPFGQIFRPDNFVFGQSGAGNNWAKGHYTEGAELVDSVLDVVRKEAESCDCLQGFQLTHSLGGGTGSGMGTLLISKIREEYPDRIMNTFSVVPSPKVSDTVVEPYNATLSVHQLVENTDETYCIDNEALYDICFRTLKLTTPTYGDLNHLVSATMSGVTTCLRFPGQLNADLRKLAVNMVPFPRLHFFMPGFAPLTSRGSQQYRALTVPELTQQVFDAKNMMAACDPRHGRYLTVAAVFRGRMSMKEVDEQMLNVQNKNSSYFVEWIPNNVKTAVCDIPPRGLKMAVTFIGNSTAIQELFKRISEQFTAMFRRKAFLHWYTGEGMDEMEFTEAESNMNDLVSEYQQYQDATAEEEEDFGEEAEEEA
Chain of UniProt Q9BUF5 (Q9BUF5 whole entry): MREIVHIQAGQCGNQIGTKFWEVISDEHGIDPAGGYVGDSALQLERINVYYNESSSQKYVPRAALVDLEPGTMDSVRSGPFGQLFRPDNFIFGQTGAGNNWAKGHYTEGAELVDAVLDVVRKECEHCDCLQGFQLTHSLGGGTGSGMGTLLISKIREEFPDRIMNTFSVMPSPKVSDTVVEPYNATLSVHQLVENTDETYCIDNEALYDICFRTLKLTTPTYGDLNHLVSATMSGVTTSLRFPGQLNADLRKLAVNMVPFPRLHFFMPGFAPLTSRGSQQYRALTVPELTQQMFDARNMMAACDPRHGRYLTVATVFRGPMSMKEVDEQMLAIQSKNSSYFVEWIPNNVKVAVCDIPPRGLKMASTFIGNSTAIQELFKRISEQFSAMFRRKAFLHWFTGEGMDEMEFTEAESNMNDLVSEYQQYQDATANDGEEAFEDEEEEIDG

Substance	effect of a mutation on the interaction (tbb6_human TUBB6)	effect of a mutation on the interaction (tbb5_human TUBB)	effect of a mutation on the interaction (tbb4a_human TUBB4A)
Leucine-rich repeat serine/threonine-protein kinase 2 (Homo sapiens), Q5S007 K1347A	disrupting interaction	disrupting interaction	disrupting interaction
Leucine-rich repeat serine/threonine-protein kinase 2 (Homo sapiens), Q5S007 R1441H	–	decreasing interaction	decreasing interaction
Leucine-rich repeat serine/threonine-protein kinase 2 (Homo sapiens), Q5S007 T1343A	–	–	increasing interaction
Leucine-rich repeat serine/threonine-protein kinase 2 (Homo sapiens), Q5S007 T1491D	–	–	decreasing interaction

Results, then the substance that gave them:

effect of a mutation on the interaction (tbb6_human TUBB6)	effect of a mutation on the interaction (tbb5_human TUBB)	effect of a mutation on the interaction (tbb4a_human TUBB4A)	Substance
–	increasing interaction	increasing interaction	Leucine-rich repeat serine/threonine-protein kinase 2 (Homo sapiens), Q5S007 R1441C
–	decreasing interaction	decreasing interaction	Leucine-rich repeat serine/threonine-protein kinase 2 (Homo sapiens), Q5S007 R1441G
–	decreasing interaction	decreasing interaction	Leucine-rich repeat serine/threonine-protein kinase 2 (Homo sapiens), Q5S007 T1343D
–	–	increasing interaction	Leucine-rich repeat serine/threonine-protein kinase 2 (Homo sapiens), Q5S007 T1491A
